Patent US20140274782A1, “AFFINITY REAGENTS AND METHODS FOR DETECTION, PURIFICATION, AND PROTEOMIC ANALYSIS OF METHYLATED PROTEINS” (The Board of Trustees of the Leland Stanford Junior …, priority 2013, published 2014)

T1: G9a and GLP (Homo sapiens, UniProt Q96KQ7+Q9H9B1)
T1 sequence (Q96KQ7 2-1210 limits assumed): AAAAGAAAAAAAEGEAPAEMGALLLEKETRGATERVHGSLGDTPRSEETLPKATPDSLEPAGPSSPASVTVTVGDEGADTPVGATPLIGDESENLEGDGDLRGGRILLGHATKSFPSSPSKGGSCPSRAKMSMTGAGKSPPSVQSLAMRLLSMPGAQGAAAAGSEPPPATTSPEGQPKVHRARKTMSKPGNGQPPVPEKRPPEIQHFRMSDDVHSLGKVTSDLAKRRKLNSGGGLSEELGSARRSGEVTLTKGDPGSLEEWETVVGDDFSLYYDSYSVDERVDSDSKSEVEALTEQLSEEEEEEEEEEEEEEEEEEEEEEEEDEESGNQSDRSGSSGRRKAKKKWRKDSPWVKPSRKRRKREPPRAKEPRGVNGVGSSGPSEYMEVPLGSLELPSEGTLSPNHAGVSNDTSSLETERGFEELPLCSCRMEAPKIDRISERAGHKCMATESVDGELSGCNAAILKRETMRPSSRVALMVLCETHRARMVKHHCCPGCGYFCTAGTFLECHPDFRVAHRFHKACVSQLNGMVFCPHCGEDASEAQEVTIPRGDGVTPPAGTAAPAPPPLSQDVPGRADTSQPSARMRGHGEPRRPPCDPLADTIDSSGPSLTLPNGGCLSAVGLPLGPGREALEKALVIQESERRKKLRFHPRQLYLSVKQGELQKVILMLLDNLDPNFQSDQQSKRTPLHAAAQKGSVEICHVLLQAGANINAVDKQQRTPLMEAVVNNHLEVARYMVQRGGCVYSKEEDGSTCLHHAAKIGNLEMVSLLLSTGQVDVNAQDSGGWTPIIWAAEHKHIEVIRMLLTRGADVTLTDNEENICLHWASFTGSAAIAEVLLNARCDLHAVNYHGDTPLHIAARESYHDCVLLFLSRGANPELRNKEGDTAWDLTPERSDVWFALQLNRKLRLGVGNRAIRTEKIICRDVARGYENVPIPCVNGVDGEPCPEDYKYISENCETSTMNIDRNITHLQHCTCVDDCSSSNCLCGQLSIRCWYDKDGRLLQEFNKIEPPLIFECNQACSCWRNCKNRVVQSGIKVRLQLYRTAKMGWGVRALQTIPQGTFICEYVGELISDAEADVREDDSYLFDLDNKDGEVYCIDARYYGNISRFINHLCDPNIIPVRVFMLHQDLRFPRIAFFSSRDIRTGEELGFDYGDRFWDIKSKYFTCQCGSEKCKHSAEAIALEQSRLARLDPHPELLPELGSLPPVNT
T1 sequence (Q9H9B1 2-1298 limits assumed): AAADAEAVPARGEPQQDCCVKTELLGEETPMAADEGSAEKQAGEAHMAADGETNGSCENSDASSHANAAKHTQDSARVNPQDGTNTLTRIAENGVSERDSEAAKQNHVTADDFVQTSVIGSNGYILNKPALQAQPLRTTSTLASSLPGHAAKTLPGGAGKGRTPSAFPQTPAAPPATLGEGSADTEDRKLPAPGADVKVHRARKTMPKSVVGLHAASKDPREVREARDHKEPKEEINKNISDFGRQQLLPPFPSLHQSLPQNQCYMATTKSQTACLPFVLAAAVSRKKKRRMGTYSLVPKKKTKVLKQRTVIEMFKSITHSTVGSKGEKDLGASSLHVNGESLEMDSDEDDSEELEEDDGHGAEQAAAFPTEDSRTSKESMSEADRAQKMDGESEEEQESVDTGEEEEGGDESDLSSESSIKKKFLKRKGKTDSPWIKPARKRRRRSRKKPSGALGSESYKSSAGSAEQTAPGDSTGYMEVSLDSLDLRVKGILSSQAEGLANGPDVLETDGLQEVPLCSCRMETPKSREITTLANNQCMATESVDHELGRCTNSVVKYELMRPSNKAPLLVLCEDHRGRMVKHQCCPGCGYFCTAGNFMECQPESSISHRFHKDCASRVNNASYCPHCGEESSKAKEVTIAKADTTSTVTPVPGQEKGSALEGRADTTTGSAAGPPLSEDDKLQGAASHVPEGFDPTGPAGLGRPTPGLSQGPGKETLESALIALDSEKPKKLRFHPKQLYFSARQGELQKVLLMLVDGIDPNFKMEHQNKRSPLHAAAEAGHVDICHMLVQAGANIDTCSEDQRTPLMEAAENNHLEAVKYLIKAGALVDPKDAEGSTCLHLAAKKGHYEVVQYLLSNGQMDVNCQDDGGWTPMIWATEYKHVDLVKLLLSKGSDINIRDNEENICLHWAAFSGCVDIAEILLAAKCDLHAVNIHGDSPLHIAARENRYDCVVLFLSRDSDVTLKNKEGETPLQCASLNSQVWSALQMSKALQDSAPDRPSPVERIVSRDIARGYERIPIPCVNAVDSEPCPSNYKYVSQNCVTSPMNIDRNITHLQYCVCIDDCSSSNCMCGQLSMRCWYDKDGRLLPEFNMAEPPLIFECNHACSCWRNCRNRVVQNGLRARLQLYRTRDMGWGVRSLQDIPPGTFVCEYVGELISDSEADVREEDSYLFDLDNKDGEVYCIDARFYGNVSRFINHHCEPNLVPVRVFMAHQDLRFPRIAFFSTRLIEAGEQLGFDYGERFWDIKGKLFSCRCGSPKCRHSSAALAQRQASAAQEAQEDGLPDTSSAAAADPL

B1: CRKL (protein, UniProt P46109 1-303, looked up)
Crk-like protein: MSSARFDSSDRSAWYMGPVSRQEAQTRLQGQRHGMFLVRDSSTCPGDYVLSVSENSRVSHYIINSLPNRRFKIGDQEFDHLPALLEFYKIHYLDTTTLIEPAPRYPSPPMGSVSAPNLPTAEDNLEYVRTLYDFPGNDAEDLPFKKGEILVIIEKPEEQWWSARNKDGRVGMIPVPYVEKLVRSSPHGKHGNRNSNSYGIPEPAHAYAQPQTTTPLPAVSGSPGAAITPLPSTQNGPVFAKAIQKRVPCAYDKTALALEVGDIVKVTRMNINGQWEGEVNGRKGLFPFTHVKIFDPQNPDENE
B2: SEC23B (protein, UniProt Q15437 2-767, looked up)
Protein transport protein …: ATYLEFIQQNEERDGVRFSWNVWPSSRLEATRMVVPLACLLTPLKERPDLPPVQYEPVLCSRPTCKAVLNPLCQVDYRAKLWACNFCFQRNQFPPAYGGISEVNQPAELMPQFSTIEYVIQRGAQSPLIFLYVVDTCLEEDDLQALKESLQMSLSLLPPDALVGLITFGRMVQVHELSCEGISKSYVFRGTKDLTAKQIQDMLGLTKPAMPMQQARPAQPQEHPFASSRFLQPVHKIDMNLTDLLGELQRDPWPVTQGKRPLRSTGVALSIAVGLLEGTFPNTGARIMLFTGGPPTQGPGMVVGDELKIPIRSWHDIEKDNARFMKKATKHYEMLANRTAANGHCIDIYACALDQTGLLEMKCCANLTGGYMVMGDSFNTSLFKQTFQRIFTKDFNGDFRMAFGATLDVKTSRELKIAGAIGPCVSLNVKGPCVSENELGVGGTSQWKICGLDPTSTLGIYFEVVNQHNTPIPQGGRGAIQFVTHYQHSSTQRRIRVTTIARNWADVQSQLRHIEAAFDQEAAAVLMARLGVFRAESEEGPDVLRWLDRQLIRLCQKFGQYNKEDPTSFRLSDSFSLYPQFMFHLRRSPFLQVFNNSPDESSYYRHHFARQDLTQSLIMIQPILYSYSFHGPPEPVLLDSSSILADRILLMDTFFQIVIYLGETIAQWRKAGYQDMPEYENFKHLLQAPLDDAQEILQARFPMPRYINTEHGGSQARFLLSKVNPSQTHNNLYAWGQETGAPILTDDVSLQVFMDHLKKLAVSSAC
B3: ATXN2L (protein, UniProt Q8WWM7 1-1075, looked up)
Ataxin-2-like protein: MLKPQPLQQPSQPQQPPPTQQAVARRPPGGTSPPNGGLPGPLATSAAPPGPPAAASPCLGPVAAAGSGLRRGAEGILAPQPPPPQQHQERPGAAAIGSARGQSTGKGPPQSPVFEGVYNNSRMLHFLTAVVGSTCDVKVKNGTTYEGIFKTLSSKFELAVDAVHRKASEPAGGPRREDIVDTMVFKPSDVMLVHFRNVDFNYATKDKFTDSAIAMNSKVNGEHKEKVLQRWEGGDSNSDDYDLESDMSNGWDPNEMFKFNEENYGVKTTYDSSLSSYTVPLEKDNSEEFRQRELRAAQLAREIESSPQYRLRIAMENDDGRTEEEKHSAVQRQGSGRESPSLASREGKYIPLPQRVREGPRGGVRCSSSRGGRPGLSSLPPRGPHHLDNSSPGPGSEARGINGGPSRMSPKAQRPLRGAKTLSSPSNRPSGETSVPPPPAVGRMYPPRSPKSAAPAPISASCPEPPIGSAVPTSSASIPVTSSVSDPGVGSISPASPKISLAPTDVKELSTKEPGRTLEPQELARIAGKVPGLQNEQKRFQLEELRKFGAQFKLQPSSSPENSLDPFPPRILKEEPKGKEKEVDGLLTSEPMGSPVSSKTESVSDKEDKPPLAPSGGTEGPEQPPPPCPSQTGSPPVGLIKGEDKDEGPVAEQVKKSTLNPNAKEFNPTKPLLSVNKSTSTPTSPGPRTHSTPSIPVLTAGQSGLYSPQYISYIPQIHMGPAVQAPQMYPYPVSNSVPGQQGKYRGAKGSLPPQRSDQHQPASAPPMMQAAAAAGPPLVAATPYSSYIPYNPQQFPGQPAMMQPMAHYPSQPVFAPMLQSNPRMLTSGSHPQAIVSSSTPQYPSAEQPTPQALYATVHQSYPHHATQLHAHQPQPATTPTGSQPQSQHAAPSPVQHQAGQAPHLGSGQPQQNLYHPGALTGTPPSLPPGPSAQSPQSSFPQPAAVYAIHHQQLPHGFTNMAHVTQAHVQTGITAAPPPHPGAPHPPQVMLLHPPQSHGGPPQGAVPQSGVPALSASTPSPYPYIGHPQGEQPGQAPGFPGGADDRIREFSLAGGIWHGRAEGLQVGQDARVLGGE
B4: DDX5 (protein, UniProt P17844 1-614, looked up)
Probable ATP-dependent RNA …: MSGYSSDRDRGRDRGFGAPRFGGSRAGPLSGKKFGNPGEKLVKKKWNLDELPKFEKNFYQEHPDLARRTAQEVETYRRSKEITVRGHNCPKPVLNFYEANFPANVMDVIARQNFTEPTAIQAQGWPVALSGLDMVGVAQTGSGKTLSYLLPAIVHINHQPFLERGDGPICLVLAPTRELAQQVQQVAAEYCRACRLKSTCIYGGAPKGPQIRDLERGVEICIATPGRLIDFLECGKTNLRRTTYLVLDEADRMLDMGFEPQIRKIVDQIRPDRQTLMWSATWPKEVRQLAEDFLKDYIHINIGALELSANHNILQIVDVCHDVEKDEKLIRLMEEIMSEKENKTIVFVETKRRCDELTRKMRRDGWPAMGIHGDKSQQERDWVLNEFKHGKAPILIATDVASRGLDVEDVKFVINYDYPNSSEDYIHRIGRTARSTKTGTAYTFFTPNNIKQVSDLISVLREANQAINPKLLQLVEDRGSGRSRGRGGMKDDRRDRYSAGKRGGFNTFRDRENYDRGYSSLLKRDFGAKTQNGVYSAANYTNGSFGSNFVSAGIQTSFRTGNPTGTYQNGYDSTQQYGSNVPNMHNGMNQQAYAYPATAAAPMIGYPMPTGYSQ

Experiments:
3×MBT domain of L3MBTL1 = test: Triple SILAC pull-down, 3xMBT/3xMBTD355N ratio (cytoplasmic, nuclear and chromatin fractions of 293T cells); assay type: binding, human; details: SILAC ratio, pull-down 3xMBT vs 3xMBTD355N; for 3xMBT/D355N UNC Heavy: experiment with UNC0638 in heavy SILAC media; for 3xMBT/D355N UNC Light: experiment with UNC0638 in light SILAC media;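 as to all read-outs here: proteins quantified with MaxQuant, requiring at least two unique peptides and quantification in both label directions, normalized to the mean of proteins from a digested loading control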
G9a and GLP = biological target: T1, G9a and GLP; test: Triple SILAC pull-down after UNC0638 treatment of 293T cells, DMSO/UNC0638 ratio of protein captured by 3×MBT; assay type: cell-based; parameters: cells were treated for 24 hours with UNC0638 at 2.5 μM or DMSO vehicle control; endogenous in cells; host or cells: HEK 293T; details: for Relative to UNC0638 UNC Heavy / Relative to UNC0638 UNC Light: SILAC ratio DMSO/UNC0638 of protein pulled down with 3xMBT; for Relative to UNC0638 UNC Heavy: UNC0638 in heavy SILAC media; for Relative to UNC0638 UNC Light: UNC0638 in light SILAC media; for Relative to UNC0638 Average: average of UNC Light and UNC Heavy experiments;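 as to all read-outs here: mass spectrometry (Q-Exactive) SILAC quantitation, DMSO/UNC0638 ratio computed after subtracting 3×MBTD355N mutant pull-down background, only proteins with at least twofold 3×MBT over mutant signal considered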

Row | Molecule | 3xMBT/D355N UNC Heavy (3×MBT domain of L3MBTL1) | 3xMBT/D355N UNC Light (3×MBT domain of L3MBTL1) | Relative to UNC0638 UNC Heavy (G9a and GLP) | Relative to UNC0638 UNC Light (G9a and GLP) | Relative to UNC0638 Average (G9a and GLP)
1 | B1 | 1.16 log base 2 | 1.59 log base 2 | 0.37 log base 2 | 0.03 log base 2 | 0.20 log base 2
2 | B2 | 3.24 log base 2 | 3.16 log base 2 | 0.17 log base 2 | 0.24 log base 2 | 0.21 log base 2
3 | B3 | 2.64 log base 2 | 2.66 log base 2 | 0.31 log base 2 | 0.12 log base 2 | 0.21 log base 2
4 | B4 | 3.00 log base 2 | 2.92 log base 2 | 0.31 log base 2 | 0.10 log base 2 | 0.20 log base 2
